# B1: TPR t1 (parent)
# chain: GACCAAUCUGCCCUCAGAGCUCGAGAACAUCUUCGGAUGCAGAGGAGGCAGGCUUCGGUGGCGCGAUAGCGCCAACGUCCUCAACCUCCAAUGCAUCCCACCACAUGAUGAUGCCUGAAGAGCCUUGGUUUUUUG
# Variants of: B1
# Experiment: polymerase ribozyme fitness, log enrichment relative to wild type (log ratio); higher = more active; in vitro selection for triplet polymerase activity
# In short: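 Fitness measures genotype enrichment against wild-type enrichment on a logarithmic scale, with inverse-variance-weighted averaging of replicates. The logarithm is base 2, and genotypes were kept only with ≥10 input reads and ≥1 read per output in Illumina sequencing. The sequenced libraries came from one triplicate in vitro selection round, including frozen incubation at −7 °C, of PCR-built, transcribed mutant libraries of each subunit of a heterodimeric triplet polymerase ribozyme.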
row,Variant,polymerase ribozyme fitness (log ratio)
1,A90G C97U A105C U130A,-3.67
2,G52U U92A C104U,-4.43
3,A2G C40A C89U,-1.58
4,C8U C40G G42U C49A U130A,-2.72
5,C64G C123G,-5.33
6,A6C C115G,-2.07
7,U14A A37U A84G,-2.93
8,A29G A118U G120C,-1.87
9,G39C A90G,0.876
10,U78C U112C,2.04
11,G48A G57C C115G G122A,-1.91
12,C11A G77A A84U G122A,-1.06
13,C82A C88A U96A,-1.57
14,A18U U78C C88U U112G,-2.16
15,C8G G35C A90G,-2.66
16,G60C U112A,0.838
17,C12U A83C G122U,0.68
18,C89U C104U,0.00386
19,A46U G110C,-4.29
20,A37U G39U C104U,-1.36
21,C86A C104U,0.0777
22,G39A G61A C85U,-0.757
23,C98U U129C,-1.46
24,C79U U106A U116G,-2.6

row,Variant,polymerase ribozyme fitness (log ratio)
1,C70A C85U,-2.32
2,A46U U55A A121G,0.98
3,C3A C4A C40U C104A U112G,-3.41
4,C70U G77U C94A U116C A121C,-2.35
5,C20A C53A G57A C73U C79U C102A A121C,-4.43
6,C40A A50U C89U,-1.95
7,C22U G45U G47C,-7.47
8,C13U U130A U133A,-1.2
9,A26C G47C C88A C102G A105C C123A,-7.85
10,U7A C22U G39A G44U C53U C56G G63C C124A U125A,-5.65
11,G107A,-4.86
12,G60A C72G C101U,-1.15
13,G45A C49G U106C U112A,-0.738
14,G47U C64A C80G U87G C88A U112A,-6.27
15,C13U G61U U129A G135U,-0.936
16,C40G G48U A105U,-3.14
17,C62A G93C,-2.37
18,A68U G93U C101A G113U G117A,-6.33
19,A6U U54C C72U,0.695
20,A37U G69U A95C C101G G127A,-3.13
21,G42A A91G,-2.47
22,C20A C22U U59G C82A A111U,-5.49
23,G51A G61A U125A,-2.21
24,G47A G69A,-3.08

row,Variant,polymerase ribozyme fitness (log ratio)
1,A29G G71U,-1.72
2,C12A A43C G61U C123G,-0.577
3,C102G U106C C114G C123A,-6.08
4,C11G G17C C53U C79U U129G,-3.84
5,A2U G36C C53U,-3.54
6,C40A C62U A91U G93C C104U G113A,-2.62
7,C86A A100C,-1.66
8,G19U C20A C72G G77C A91C C94A U106A,-5.31
9,A43U U112G G127U,-2.19
10,C8U C22G C104G G117A U125G,-4.71
11,U14G U96A G110A,-3.75
12,G10A U54G G71C C102U A111U U129G,-5.93
13,C22A G52A C124U,-4.37
14,U21A G61C C114A,-2.8
15,G48A C88U,-0.667
16,C12U C56A G113A,-0.59
17,A27U C76A G113A A119U,-6.73
18,G36U C56G C123G,-5.15
19,U14G C40G C73A A105U,-4.25
20,U30C C97G A108U U112A C124G,-7.16
21,C8G C15G C76G,-1.01
22,G113U G127C,-1.61
23,U59C C72G A118C,-3.55
24,C12U U109G,-3.6

row,Variant,polymerase ribozyme fitness (log ratio)
1,G19U C89G,-4.36
2,C11G C64U A84U,-0.0856
3,C12G A27G A68G,-4.94
4,G35U A90C,-6.98
5,G36A G57A C80U U112C C114A A119U G122U,-5.44
6,A2G A41C G42A C82G C89A U92G G120U,-5.77
7,C124A G128A,-0.565
8,U55G C56U G117A G135C,-2.53
9,G61C C94U U112A,-1.52
10,C11G A105U U112A A119G G120A G122A,-0.827
11,G58C C62A G69U A119U,-0.99
12,U9C G35U A50U,-6.01
13,G47U C72A C76A,-1.85
14,C22G C79A C94U G110U A119G U133A,-3.44
15,G44C C64U A111G,-0.526
16,C53U U132C,-0.221
17,C79A C88G,-2.33
18,C72A A111C C124A G127A,0.235
19,G47U C72G A90G,-1.68
20,C15A G36U G42A C49G G60U,-6.51
21,G42U U55G U125A,-1.45
22,U7A U21C C114A,-0.182
23,U87G U126G,-1.84
24,C34G C53U G61U C73U G113C C114G,-8.49

row,Variant,polymerase ribozyme fitness (log ratio)
1,C3U A29G A46U G61A A66U A83G C86A C101U U132A,-4.12
2,A46U A74G C101A,-3.42
3,U55A C88A,0.08
4,C49U G77A,0.352
5,C13A C101A,-2.54
6,C40A C49A C86G,-3.35
7,C12U G19C,-1.79
8,G61U A74U G127U,-4.02
9,C20G A29G C88U U106A,-5.14
10,G48U U112C,0.623
11,G61A C101A,-0.787
12,A29C U55C C72U C115A U133A,-2.23
13,C73A C102U,-0.943
14,C12G G110C,-3.59
15,U78C C85U U112A,0.233
16,G42A A103U U112A,-7.34
17,C4U A43C G45A G69U C124A,0.59
18,A74U A75U U81A G127U,-1.96
19,C12G A66C,-0.578
20,C99U U112C G117A G128A,-5.01
21,U9G A37U G42A G45C A95G,-3.58
22,C8U U109A,-5.29
23,G117A U131G,-1.55
24,C28G C53A,-1.99

row,Variant,polymerase ribozyme fitness (log ratio)
1,U38G U112C,0.772
2,A27U A46G C72U G120A,-2.7
3,C13A G17C C72U C88U A121G,-2.21
4,A5G G10U G42U,-1.51
5,G77C C124U,1.82
6,U33C A43U,-5.07
7,C89G C101A,-2.55
8,G36U C89A,-2.46
9,A6C G63U C115A U116C,-4.89
10,U38C C56U C98U G110U,-5.51
11,A2U G63C,-3.13
12,U9G A41U G71A U81C U96A,-5.71
13,A43C C88U G93A,-1.96
14,C22G U106A,-2.37
15,U55A U112A,1.77
16,C8G U87A C101A A105C,-3.4
17,C79A C99G G120U,-7.33
18,C88U C94U U129G,-1.48
19,C34A G57A C72U G93A,-5.18
20,U55C G113U,-3.3
21,C124U,1.54
22,G39U C88A,-2.37
23,C8U A18C G48C A95G,-2.07
24,C13U U109A,-5.03

row,Variant,polymerase ribozyme fitness (log ratio)
1,C104A C123A,-1.7
2,U38G U54C C56U G61U A111U,-5.38
3,A6G C70U,-1.29
4,C8A C72U A84C,0.272
5,G117C U129G,-6.14
6,C34A A50U G61U,-3.7
7,G47C U112A,-0.857
8,C80G A100C U131A,-5.8
9,U109G G120A,-4.17
10,G10U C34A G69U G122A,0.552
11,G63U C101U,-2.57
12,U81C C88U,0.221
13,C11A U112G,-1.43
14,G23A C115U,-3.88
15,C13A C70G G93A C104A G110C,-6.34
16,G57C G61C C88G G113U U116C A121U,-6.29
17,C22G U55G G60U C62G U78C,-5.09
18,C15U C56A C72A C79G,-2.96
19,C3U G52A,-0.0464
20,C40U G47U U109A U129G,-7.79
21,C12G U78C U125A,-0.607
22,A27G A100U,-3.23
23,C11U A24G G45U A91G,-5.06
